Measured values: US10370433B2, “Compositions and methods for diagnosis and treatment of cancer” (BIONTECH AG, priority 2015, dated 2019)
Where two headings read alike, the source gives them in different places.

Experiments:
[1] = human, in vivo, iv
in vivo = details: BALB/c nu/nu, mouse, iv, total radioactivity; for tissue uptake at 1 h / tissue uptake at 2 h / tissue uptake at 4 h / tissue uptake at 6 h / tissue uptake at 24 h / tissue uptake at 0.5 h: Mean % ID/g; for tissue uptake at 0.5 h: 30 min

CC[C@H](C)[C@@H]1NC(=O)[C@@H]2CSSC[C@H](NC(=O)[C@H](C)NC(=O)CNC(=O)[C@H](CO)NC(=O)CNC(=O)CON=CC(=O)NCCCC[C@H](NC(=O)[C@H](CO)NC(=O)CNC(=O)[C@H](CO)NC(=O)CNC(=O)[C@H](CCCCNC(=O)C=NOCC(=O)NCC(=O)N[C@@H](CO)C(=O)NCC(=O)N[C@@H](C)C(=O)N[C@H]3CSSC[C@@H]4NC(=O)[C@H](CCCNC(=N)N)NC(=O)CNC(=O)[C@@H]5CCCN5C(=O)[C@@H]5CSSC[C@@H](C(=O)NCC(=O)O)NC(=O)[C@H](Cc6ccc(O)cc6)NC(=O)CNC(=O)[C@H](CC(N)=O)NC(=O)CNC(=O)[C@H](CCCNC(=N)N)NC(=O)[C@H](CSSC[C@H](NC(=O)[C@H](CC(=O)O)NC(=O)[C@@H]6CCCN6C(=O)CNC(=O)[C@H](CCCNC(=N)N)NC(=O)CNC(=O)[C@@H]6CCCN6C(=O)[C@H]([C@@H](C)O)NC(=O)[C@H](Cc6c[nH]c7ccccc67)NC(=O)[C@H](CC(N)=O)NC(=O)[C@H](CO)NC(=O)[C@H](Cc6ccc(O)cc6)NC(=O)[C@@H]6CCCN6C3=O)C(=O)N[C@@H](CCCNC(=N)N)C(=O)N[C@@H](CCCNC(=N)N)C(=O)N[C@@H](CC(=O)O)C(=O)N[C@@H](CO)C(=O)N[C@@H](CC(=O)O)C(=O)N5)NC(=O)[C@H]([C@@H](C)CC)NC4=O)NC(=O)[C@H](CO)NC(=O)CNC(=O)[C@H](CO)NC(=O)CNC(=O)[C@H](CCCCNC(=O)C=NOCC(=O)NCC(=O)N[C@@H](CO)C(=O)NCC(=O)N[C@@H](C)C(=O)N[C@H]3CSSC[C@@H]4NC(=O)[C@H](CCCNC(=N)N)NC(=O)CNC(=O)[C@@H]5CCCN5C(=O)[C@@H]5CSSC[C@@H](C(=O)NCC(=O)O)NC(=O)[C@H](Cc6ccc(O)cc6)NC(=O)CNC(=O)[C@H](CC(N)=O)NC(=O)CNC(=O)[C@H](CCCNC(=N)N)NC(=O)[C@H](CSSC[C@H](NC(=O)[C@H](CC(=O)O)NC(=O)[C@@H]6CCCN6C(=O)CNC(=O)[C@H](CCCNC(=N)N)NC(=O)CNC(=O)[C@@H]6CCCN6C(=O)[C@H]([C@@H](C)O)NC(=O)[C@H](Cc6c[nH]c7ccccc67)NC(=O)[C@H](CC(N)=O)NC(=O)[C@H](CO)NC(=O)[C@H](Cc6ccc(O)cc6)NC(=O)[C@@H]6CCCN6C3=O)C(=O)N[C@@H](CCCNC(=N)N)C(=O)N[C@@H](CCCNC(=N)N)C(=O)N[C@@H](CC(=O)O)C(=O)N[C@@H](CO)C(=O)N[C@@H](CC(=O)O)C(=O)N5)NC(=O)[C@H]([C@@H](C)CC)NC4=O)NC(=O)[C@H](CO)NC(=O)CNC(=O)[C@H](CO)NC(=O)CNC(=O)CN3CCN(CC(=O)O)CCN(CC(=O)O)CCN(CC(=O)O)CC3)C(=O)O)C(=O)N3CCC[C@H]3C(=O)N[C@@H](Cc3ccc(O)cc3)C(=O)N[C@@H](CO)C(=O)N[C@@H](CC(N)=O)C(=O)N[C@@H](Cc3c[nH]c4ccccc34)C(=O)N[C@@H]([C@@H](C)O)C(=O)N3CCC[C@H]3C(=O)NCC(=O)N[C@@H](CCCNC(=N)N)C(=O)NCC(=O)N3CCC[C@H]3C(=O)N[C@@H](CC(=O)O)C(=O)N[C@H]3CSSC[C@H](NC1=O)C(=O)N[C@@H](CCCNC(=N)N)C(=O)NCC(=O)N[C@@H](CC(N)=O)C(=O)NCC(=O)N[C@@H](Cc1ccc(O)cc1)C(=O)N[C@H](C(=O)NCC(=O)O)CSSC[C@H](NC(=O)[C@H](CC(=O)O)NC(=O)[C@H](CO)NC(=O)[C@H](CC(=O)O)NC(=O)[C@H](CCCNC(=N)N)NC(=O)[C@H](CCCNC(=N)N)NC3=O)C(=O)N1CCC[C@H]1C(=O)NCC(=O)N[C@@H](CCCNC(=N)N)C(=O)N2 (single isomer, unassigned) [^177Lu-(MC-FA-012)3, metal not drawn]
Mean % ID/g, Brain (CT26-huSeprase tumors; 30 min): 0.6895 % ID/g | Mean % ID/g, Injection site (CT26-huSeprase tumors; 30 min): 4.2434 % ID/g | Mean % ID/g, Intestine (CT26-huSeprase tumors; 30 min): 0.7435 % ID/g | Mean % ID/g, Kidneys (CT26-huSeprase tumors; 30 min): 286.7812 % ID/g | Mean % ID/g, Muscle (CT26-huSeprase tumors; 30 min): 0.0589 % ID/g | Mean % ID/g, Spleen (CT26-huSeprase tumors; 30 min): 0.9253 % ID/g | Mean % ID/g, Tumor (CT26-huSeprase tumors; 30 min): 9.8546 % ID/g | Mean % ID/g, Brain (CT26-huSeprase tumors; 1 h): 0.2284 % ID/g | Mean % ID/g, Injection site (CT26-huSeprase tumors; 1 h): 15.2418 % ID/g | Mean % ID/g, Intestine (CT26-huSeprase tumors; 1 h): 0.5079 % ID/g | Mean % ID/g, Muscle (CT26-huSeprase tumors; 1 h): 0.0423 % ID/g | Mean % ID/g, Spleen (CT26-huSeprase tumors; 1 h): 0.5493 % ID/g | Mean % ID/g, Tumor (CT26-huSeprase tumors; 1 h): 6.7929 % ID/g | Mean % ID/g, Brain (CT26-huSeprase tumors; 2 h): 0.5818 % ID/g | Mean % ID/g, Intestine (CT26-huSeprase tumors; 2 h): 1.0902 % ID/g | Mean % ID/g, Kidneys (CT26-huSeprase tumors; 2 h): 272.3888 % ID/g | Mean % ID/g, Muscle (CT26-huSeprase tumors; 2 h): 0.0317 % ID/g | Mean % ID/g, Spleen (CT26-huSeprase tumors; 2 h): 0.6561 % ID/g | Mean % ID/g, Tumor (CT26-huSeprase tumors; 2 h): 8.1504 % ID/g | Mean % ID/g, Brain (CT26-huSeprase tumors; 4 h): 0.3159 % ID/g | Mean % ID/g, Intestine (CT26-huSeprase tumors; 4 h): 0.2913 % ID/g | Mean % ID/g, Kidneys (CT26-huSeprase tumors; 4 h): 245.1877 % ID/g | Mean % ID/g, Muscle (CT26-huSeprase tumors; 4 h): 0.0241 % ID/g | Mean % ID/g, Spleen (CT26-huSeprase tumors; 4 h): 0.5931 % ID/g | Mean % ID/g, Tumor (CT26-huSeprase tumors; 4 h): 7.7667 % ID/g | Mean % ID/g, Brain (CT26-huSeprase tumors; 6 h): 0.2159 % ID/g | Mean % ID/g, Intestine (CT26-huSeprase tumors; 6 h): 0.9309 % ID/g | Mean % ID/g, Kidneys (CT26-huSeprase tumors; 6 h): 259.4467 % ID/g | Mean % ID/g, Muscle (CT26-huSeprase tumors; 6 h): 0.1259 % ID/g | Mean % ID/g, Spleen (CT26-huSeprase tumors; 6 h): 0.6287 % ID/g | Mean % ID/g, Tumor (CT26-huSeprase tumors; 6 h): 7.8057 % ID/g | Mean % ID/g, Brain (CT26-huSeprase tumors; 24 h): 0.2151 % ID/g | Mean % ID/g, Intestine (CT26-huSeprase tumors; 24 h): 0.3347 % ID/g | Mean % ID/g, Kidneys (CT26-huSeprase tumors; 24 h): 213.4107 % ID/g | Mean % ID/g, Muscle (CT26-huSeprase tumors; 24 h): 0.0253 % ID/g | Mean % ID/g, Spleen (CT26-huSeprase tumors; 24 h): 0.4561 % ID/g | Mean % ID/g, Tumor (CT26-huSeprase tumors; 24 h): 5.8505 % ID/g | Mean % ID/g, Kidneys (CT26-huSeprase tumors; mouse, in vivo): 222.3177 % ID/g | signal in tumor (CT26-huSeprase tumors; mouse, in vivo): 9.9-5.9 | tumor targeting (CT26-huSeprase tumors; mouse, in vivo): specific tumor targeting | acute nephrotoxicity [1]: no acute nephrotoxicity | tissue uptake at 1 h (in vivo): 0.67 %ID/g | tissue uptake at 2 h (in vivo): 0.607 %ID/g | tissue uptake at 4 h (in vivo): 0.451 %ID/g | tissue uptake at 6 h (in vivo): 0.648 %ID/g | tissue uptake at 24 h (in vivo): 0.189 %ID/g | tissue uptake at 0.5 h (in vivo; Blood): 1.35 %ID/g | tissue uptake at 1 h (in vivo; Blood): 0.36 %ID/g | tissue uptake at 2 h (in vivo; Blood): 0.135 %ID/g | tissue uptake at 4 h (in vivo; Blood): 0.042 %ID/g | tissue uptake at 6 h (in vivo; Blood): 0.0374 %ID/g | tissue uptake at 24 h (in vivo; Blood): 0.0429 %ID/g | tissue uptake at 0.5 h (in vivo; Heart): 0.615 %ID/g | tissue uptake at 1 h (in vivo; Heart): 0.187 %ID/g | tissue uptake at 2 h (in vivo; Heart): 0.128 %ID/g | tissue uptake at 4 h (in vivo; Heart): 0.102 %ID/g | tissue uptake at 6 h (in vivo; Heart): 0.0876 %ID/g | tissue uptake at 24 h (in vivo; Heart): 0.0641 %ID/g | tissue uptake at 2 h (in vivo; Injection site): 2.87 %ID/g | tissue uptake at 4 h (in vivo; Injection site): 2.61 %ID/g | tissue uptake at 6 h (in vivo; Injection site): 1.57 %ID/g | tissue uptake at 24 h (in vivo; Injection site): 0.983 %ID/g | tissue uptake at 0.5 h (in vivo; Liver): 0.668 %ID/g | tissue uptake at 1 h (in vivo; Liver): 0.398 %ID/g | tissue uptake at 2 h (in vivo; Liver): 0.44 %ID/g | tissue uptake at 4 h (in vivo; Liver): 0.41 %ID/g | tissue uptake at 6 h (in vivo; Liver): 0.431 %ID/g | tissue uptake at 24 h (in vivo; Liver): 0.363 %ID/g | tissue uptake (in vivo; signal in kidney): 287 %ID/g
